# Target: recombinant human FcγRIIIa (V158) (human) (UniProt P08637)
# Test: SPR
# Sequence of UniProt P08637 (P08637 17-208): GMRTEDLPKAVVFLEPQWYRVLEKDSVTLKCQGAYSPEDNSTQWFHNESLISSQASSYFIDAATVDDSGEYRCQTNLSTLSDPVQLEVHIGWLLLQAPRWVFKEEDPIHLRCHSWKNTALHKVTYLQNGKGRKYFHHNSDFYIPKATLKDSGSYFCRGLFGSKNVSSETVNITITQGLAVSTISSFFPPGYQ
row,Substance,Kd [nM]
1,anti-EGFR hIgG1 chimeric mAb with variant hIgG1-Fc from donor vector phIgG-SDIE (from UniProt P01875),7.42
2,anti-EGFR hIgG1 chimeric mAb with variant hIgG1-Fc from donor vector phIgG-mu (from UniProt P01875),29.4
